Changes are numbered by the printed parent chain. Read-outs that look alike come from different tables or passages of the source.
B1: VEGFBII022 (VHH, not shown: small tags and cut ends)
chain: EVQLVESGGGLVQTGDSLRLSCEVSGRTFSSYSMGWFRQAQGKEREFVVAISKGGYKYDSVSLEGRFTISKDNAKNTVYLQINSLKPEDTAVYYCASSRAYGSSRLRLADTYEYWGQGTQVTVSSGGGGSGGGSEVQLVESGGGLVQPGGSLRLSCVASGIRFMSMAWYRQAPGKHRELVARISSGGTTAYVDSVKGRFTISRDNSKNTVYLQMNSLKAEDTAVYYCNTFSSRPNPWGAGTQVTVSS
B2: VEGFBII23A06 (VHH, not shown: small tags and cut ends)
VHH: EVQLVESGGGLVQPGDSLKLSCAFSGRTFSSYSMGWFRQAQGKEREFVVAISSGGFIYDAVSLEGRFTISRDNTKNTVYLQTPSLKPEDTAVYYCAASRAYGSSRLRLADTYDYWGQGTQVTVSS
notes: also purified from E. coli TG1; also called VEGFBII23A6; 23A6
B3: VEGFBII24C04 (VHH, not shown: small tags and cut ends)
VHH: B2 VHH with A23V, F24A, F29S, F56Y, A60S, E64Q
notes: also purified from E. coli TG1; also called VEGFBII24C4
B4: VEGFBII021 (VHH, not shown: small tags and cut ends)
chain: EVQLVESGGGLVQTGDSLRLSCEVSGRTFSSYSMGWFRQAQGKEREFVVAISKGGYKYDSVSLEGRFTISKDNAKNTVYLQINSLKPEDTAVYYCASSRAYGSSRLRLADTYEYWGQGTQVTVSSGGGGSGGGGSGGGGSGGGGSGGGGSGGGGSGGGGSGGGGSEVQLVESGGGLVQPGGSLRLSCVASGIRFMSMAWYRQAPGKHRELVARISSGGTTAYVDSVKGRFTISRDNSKNTVYLQMNSLKAEDTAVYYCNTFSSRPNPWGAGTQVTVSS
B5: VEGFBII40G07 (VHH, not shown: small tags and cut ends)
VHH: EVQLVESGGGLVQPGDSLKLSCAFSGRTFSSYSMGWFRQAQGKEREFVVAISSSGGYIYDSVSLEGRFTISRDNTKNAVYLQTPSLKPEDTADYYCAASRAYGSSRLRLADTYDYWGQGTQVTVSS
B6: VEGFBII60A09 (VHH, not shown: small tags and cut ends)
VHH: B5 VHH with K76R, A78T
B7: VEGFBII56E11 (VHH, not shown: small tags and cut ends)
VHH: B5 VHH with A78T, T91A
B8: VEGFBII40H10 (VHH, not shown: small tags and cut ends)
VHH: B5 VHH with V5M, A78T
B9: VEGFBII62D10 (VHH, not shown: small tags and cut ends)
VHH: EVQLVESEGGLVQAGDSLRLSCAASGRTFSSYSMGWFRQAQGKEREFVVAISSSGNYKYDSVSLEGRFTISRDNTKNTVYLQINSLKPEDTAVYYCAASRAYGSSRLRLGDTYDYWGQGTQVTVSS
B10: VEGFBII42A05 (VHH, not shown: small tags and cut ends)
VHH: B5 VHH with A78T, T83M
B11: VEGFBII62A09 (VHH, not shown: small tags and cut ends)
VHH: B5 VHH with G10D, F24A, A78T, D93V
B12: VEGFBII023 (VHH, not shown: small tags and cut ends)
chain: EVQLVESGGGLVQTGDSLRLSCEVSGRTFSSYSMGWFRQAQGKEREFVVAISKGGYKYDSVSLEGRFTISKDNAKNTVYLQINSLKPEDTAVYYCASSRAYGSSRLRLADTYEYWGQGTQVTVSSGGGGSGGGGSGGGGSGGGGSGGGGSGGGGSGGGGSGGGGSEVQLVESGGGLVQAGGSLRLSCAASGRTFSNYAMGWFRQAPGKERVLVADISSSGINTYVADAVKGRFTISRDNAKNTVYLQMNSLKPEDTAVYYCAASAWWYSQMARDNYRYWGQGTQVTVSS
B13: VEGFBII010 (VHH, not shown: small tags and cut ends)
chain: EVQLVESGGGLVQTGDSLRLSCEVSGRTFSSYSMGWFRQAQGKEREFVVAISKGGYKYDSVSLEGRFTISKDNAKNTVYLQINSLKPEDTAVYYCASSRAYGSSRLRLADTYEYWGQGTQVTVSSGGGGSGGGGSGGGGSGGGGSGGGGSGGGGSGGGGSEVQLVESGGGLVQTGDSLRLSCEVSGRTFSSYSMGWFRQAQGKEREFVVAISKGGYKYDSVSLEGRFTISKDNAKNTVYLQINSLKPEDTAVYYCASSRAYGSSRLRLADTYEYWGQGTQVTVSS
B14: VEGFBII037 (VHH)
VHH: DVQLVESGGGLVQPGGSLRLSCAASGRTFSSYSMGWFRQAPGKEREFVVAISKGGYKYDAVSLEGRFTISRDNAKNTVYLQMNSLRPEDTAVYYCASSRAYGSSRLRLADTYEYWGQGTLVTVSS
B15: VEGFBII024 (VHH, not shown: small tags and cut ends)
chain: EVQLVESGGGLVQTGDSLRLSCEVSGRTFSSYSMGWFRQAQGKEREFVVAISKGGYKYDSVSLEGRFTISKDNAKNTVYLQINSLKPEDTAVYYCASSRAYGSSRLRLADTYEYWGQGTQVTVSSGGGGSGGGGSGGGGSGGGGSGGGGSGGGGSGGGGSGGGGSEVQLVESGGGLVQAGGSLRLSCTASGSAFKSYRMGWFRRTPGKEDEFVASISWTYGSTFYADSVKGRFTMSRDKAKNAGYLQMNSLKPEDTALYYCAAGAQSDRYNIRSYDYWGQGTQVTVSS
B16: VEGFBII025 (VHH, not shown: small tags and cut ends)
chain: EVQLVESGGGLVQAGGSLRLSCAASGRTFSNYAMGWFRQAPGKERVLVADISSSGINTYVADAVKGRFTISRDNAKNTVYLQMNSLKPEDTAVYYCAASAWWYSQMARDNYRYWGQGTQVTVSSGGGGSGGGGSGGGGSGGGGSGGGGSGGGGSGGGGSGGGGSEVQLVESGGGLVQTGDSLRLSCEVSGRTFSSYSMGWFRQAQGKEREFVVAISKGGYKYDSVSLEGRFTISKDNAKNTVYLQINSLKPEDTAVYYCASSRAYGSSRLRLADTYEYWGQGTQVTVSS
B17: VEGFBII23B04 (VHH, not shown: small tags and cut ends)
VHH: EVQLVESGGGLVQTGDSLRLSCEVSGRTFSSYSMGWFRQAQGKEREFVVAISKGGYKYDSVSLEGRFTISKDNAKNTVYLQINSLKPEDTAVYYCASSRAYGSSRLRLADTYEYWGQGTQVTVSS
notes: also purified from E. coli TG1; also called VEGFBII23B4; VEGFBII23B04 (wt)
B18: VEGFBII038 (VHH)
VHH: B14 VHH with M82I

Tests used:
VEGF [1] = experiment: cell-based or functional assay
VEGF [2] = experiment: cell-based or functional assay; remark: listed apart in the source
[3] = target: T1, recombinant human VEGF165 (human, UniProt P15692-4 27-191, biotinylated (Sulfo-NHS-LC-Biotin) in the competition assays); experiment: Biacore, periplasmic extract, VEGF165 chip, two phase decay fit; parameters: unit not given here
T1 construct: also called hVEGF165; rhVEGF165
Experimental: Dissociation rates of inhibitory VHHs are analyzed on Biacore (Biacore T100 instrument, GE Healthcare). HBS-EP+ buffer is used as running buffer and experiments are performed at 25° C. […] After immobilization, surfaces are deactivated with 10 min injection of 1 M ethanolamine pH8.5. A reference surface is activated and deactivated with respectively EDC/NHS and ethanolamine. Periplasmic extracts of VHHs are injected at a 10-fold dilution in running buffer for 2 min at 45 μl/min and allowed to dissociate for 10 or 15 min. Between different samples, the surfaces are regenerated with regeneration buffer. Data are double referenced by subtraction of the curves on the reference channel and of a blank running buffer injection. […] is evaluated by fitting a two phase decay model in the Biacore T100 Evaluation software v2.0.1.

[4] = target: T1, recombinant human VEGF165; experiment: SPR Biacore T100, VEGF165 chip, Two State Reaction fit
Experimental: Samples are injected for 2 min and allowed to dissociate up to 20 min at a flow rate of […]. In between sample injections, the chip surface is regenerated with 100 mM HCl. HBS-EP+(Hepes buffer pH7.4+EDTA) is used as running buffer. Binding curves are fitted using a Two State Reaction model by Biacore T100 Evaluation Software v2.0.1.
^{(a)}Heterogeneous binding curve resulting in no 1:1 fit, curves are fitted using a Two State Reaction model by Biacore T100 Evaluation Software v2.0.1

VEGF [5] = experiment: cell-based or functional assay; remark: listed apart in the source
[6] = target: T2, recombinant mouse VEGF164 (mouse, UniProt Q00731-2 27-190, biotinylated in the AlphaScreen); experiment: binding ELISA, coated rmVEGF164
T2 construct: also called mVEGF164; rmVEGF164
T2 sequence (looked up): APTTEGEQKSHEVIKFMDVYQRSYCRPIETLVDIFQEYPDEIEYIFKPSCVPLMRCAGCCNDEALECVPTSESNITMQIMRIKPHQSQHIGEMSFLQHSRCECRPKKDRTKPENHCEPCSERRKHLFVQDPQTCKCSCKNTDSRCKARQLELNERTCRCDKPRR
Experimental: Cross-reactivity to mouse VEGF164 is determined using a binding ELISA. […] Wells are blocked with a casein solution (1% in PBS). […] A mouse VEGF164 reactive mAb is included as positive control.

VEGF [7] = experiment: cell-based or functional assay; remark: listed apart in the source
VEGF [8] = experiment: cell-based or functional assay; remark: listed apart in the source

VEGF, sequence (P15692 whole entry): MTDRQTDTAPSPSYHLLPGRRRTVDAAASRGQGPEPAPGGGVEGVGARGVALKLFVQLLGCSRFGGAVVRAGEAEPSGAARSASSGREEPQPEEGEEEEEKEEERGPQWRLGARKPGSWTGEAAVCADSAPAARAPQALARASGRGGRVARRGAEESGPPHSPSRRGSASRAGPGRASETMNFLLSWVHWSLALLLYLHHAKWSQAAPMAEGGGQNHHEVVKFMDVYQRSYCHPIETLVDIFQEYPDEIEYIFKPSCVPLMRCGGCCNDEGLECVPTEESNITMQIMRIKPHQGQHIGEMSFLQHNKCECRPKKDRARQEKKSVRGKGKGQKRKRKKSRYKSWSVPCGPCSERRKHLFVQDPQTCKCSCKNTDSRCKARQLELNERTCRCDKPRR

Binder | HUVEC Erk phosphorylation, % inhibition (VEGF [1]) | HUVEC Erk phosphorylation, IC50 (VEGF [1]) | HUVEC proliferation, % inhibition (VEGF [2]) | HUVEC proliferation, IC50 (VEGF [2]) | kd(fast) [3] | kd(slow) [3] | other results
B1 | 94% | 0.18 nM | 100% | 0.34 nM | – | – | –
B2 | – | – | – | – | 0.017 | 3.7e-05 | ka1 [4]: 420000 M⁻¹ s⁻¹; kd1 [4]: 0.057 s⁻¹; HUVEC proliferation, % inhibition (VEGF [5]): 73%; HUVEC proliferation, IC50 (VEGF [5]): 4.29 nM
B3 | – | – | – | – | 0.013 | 3.4e-05 | ka1 [4]: 320000 M⁻¹ s⁻¹; kd1 [4]: 0.026 s⁻¹; HUVEC proliferation, % inhibition (VEGF [5]): 79%; HUVEC proliferation, IC50 (VEGF [5]): 3.8 nM; binding result [6]: no binding (tested: 500 nM)
B4 | 103% | 0.21 nM | 98% | 0.4 nM | – | – | –
B5 | – | – | – | – | 0.018 | 0.00032 | –
B6 | – | – | – | – | 0.037 | 9.3e-05 | –
B7 | – | – | – | – | 0.033 | 0.00014 | –
B8 | – | – | – | – | 0.014 | 0.00029 | –
B9 | – | – | – | – | 0.019 | 0.00016 | –
B10 | – | – | – | – | 0.016 | 0.00034 | –
B11 | – | – | – | – | 0.041 | 0.00011 | –
B12 | 100% | 0.25 nM | 98% | 0.52 nM | – | – | –
B13 | 92% | 0.19 nM | 95% | 0.22 nM | – | – | –
B14 | – | – | – | – | – | – | HUVEC proliferation, % inhibition (VEGF [7]): 78%; HUVEC proliferation, IC50 (VEGF [7]): 1.54 nM
B15 | 94% | 0.23 nM | 96% | 0.38 nM | – | – | –
B16 | 99% | 0.23 nM | 104% | 0.41 nM | – | – | –
B17 | – | – | – | – | 0.0088 | 4e-05 | HUVEC Erk phosphorylation, IC50 (VEGF [8]): 0.37 nM; HUVEC proliferation, % inhibition (VEGF [7]): 92%; HUVEC proliferation, IC50 (VEGF [7]): 0.68 nM; ka1 [4]: 210000 M⁻¹ s⁻¹; kd1 [4]: 0.0086 s⁻¹; HUVEC proliferation, % inhibition (VEGF [5]): 91%; HUVEC proliferation, IC50 (VEGF [5]): 0.36 nM
B18 | – | – | – | – | – | – | HUVEC proliferation, % inhibition (VEGF [7]): 92%; HUVEC proliferation, IC50 (VEGF [7]): 0.6 nM

— patent US20200308267A1 (Boehringer Ingelheim, published 2020)
